According to patent publication US20260103513A1:

Key:
[1] = target: Cynomolgus monkey TIGIT-His tag fusion protein (cynomolgus monkey); test: ELISA, cynomolgus TIGIT-His coated, HRP anti-human IgG, OD450
[2] = target: TIGIT protein overexpressed on cells (Homo sapiens (Human)) (UniProt Q495A1); test: flow cytometry on 293T-TIGIT cells, Alexa-647 anti-human Fc, MFI
TIGIT protein overexpressed on cells (Homo sapiens (Human)), sequence (Q495A1 22-244): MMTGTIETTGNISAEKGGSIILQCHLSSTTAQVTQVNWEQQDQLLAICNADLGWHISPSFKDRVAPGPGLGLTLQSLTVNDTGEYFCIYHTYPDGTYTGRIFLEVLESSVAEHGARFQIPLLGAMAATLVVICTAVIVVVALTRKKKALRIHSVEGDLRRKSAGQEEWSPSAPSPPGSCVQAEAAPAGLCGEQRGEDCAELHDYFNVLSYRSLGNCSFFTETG

Cynomolgus monkey TIGIT-His tag fusion protein (cynomolgus monkey), sequence (chain, as listed by the source): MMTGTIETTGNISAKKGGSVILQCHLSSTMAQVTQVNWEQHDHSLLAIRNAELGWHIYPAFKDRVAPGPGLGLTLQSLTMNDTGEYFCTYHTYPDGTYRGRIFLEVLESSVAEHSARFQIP

EC50 (read off the curve) [1]: 0.08 µg/mL
EC50 (read off the curve) [2]: 0.4 µg/mL
Substance: Tiragolumab analog (antibody)
